In patent US20260250318A1, “COMPOSITIONS AND METHODS FOR CROSSING THE BLOOD BRAIN BARRIER” (VOYAGER THERAPEUTICS, INC., priority 2022, published 2026):

T1: His-tagged ALPL (Homo sapiens, UniProt P05186)
T1 sequence (P05186 18-501): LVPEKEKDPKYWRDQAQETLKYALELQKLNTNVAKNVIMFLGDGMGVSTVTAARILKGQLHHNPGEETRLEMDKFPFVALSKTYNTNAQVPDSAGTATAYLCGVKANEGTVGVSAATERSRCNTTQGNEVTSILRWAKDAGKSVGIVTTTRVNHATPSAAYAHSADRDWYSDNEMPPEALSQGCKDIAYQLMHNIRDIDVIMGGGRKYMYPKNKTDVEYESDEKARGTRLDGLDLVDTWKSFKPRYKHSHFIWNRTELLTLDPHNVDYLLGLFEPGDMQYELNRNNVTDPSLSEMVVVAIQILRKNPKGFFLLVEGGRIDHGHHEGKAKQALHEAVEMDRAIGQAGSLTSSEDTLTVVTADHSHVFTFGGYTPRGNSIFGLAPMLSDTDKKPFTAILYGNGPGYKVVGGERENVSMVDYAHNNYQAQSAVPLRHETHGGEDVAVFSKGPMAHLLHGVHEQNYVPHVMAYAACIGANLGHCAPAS

T2: ALPL on HeLa cells (Homo sapiens, UniProt P05186)
T2 construct: knockdown endogenous levels of ALPL in HeLa cells; endogenous in cells; host or cells: HeLa
T2 sequence (P05186 18-501): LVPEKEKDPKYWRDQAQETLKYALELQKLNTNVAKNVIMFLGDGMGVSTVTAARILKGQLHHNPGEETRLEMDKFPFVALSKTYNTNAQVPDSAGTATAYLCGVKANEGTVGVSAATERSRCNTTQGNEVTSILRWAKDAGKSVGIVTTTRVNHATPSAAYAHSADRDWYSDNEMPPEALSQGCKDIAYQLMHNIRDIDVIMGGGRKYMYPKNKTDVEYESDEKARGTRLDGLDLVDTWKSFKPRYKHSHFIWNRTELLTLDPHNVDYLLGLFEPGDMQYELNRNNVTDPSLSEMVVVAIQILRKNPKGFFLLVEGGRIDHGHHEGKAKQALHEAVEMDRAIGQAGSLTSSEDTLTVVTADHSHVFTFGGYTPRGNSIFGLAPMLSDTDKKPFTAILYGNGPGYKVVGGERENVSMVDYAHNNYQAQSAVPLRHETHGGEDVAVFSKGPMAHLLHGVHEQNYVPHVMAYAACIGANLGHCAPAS


Key:
His-tagged ALPL = biological target: T1, His-tagged ALPL; assay: SPR (Biacore 8K) binding of capsids to ALPL; settings: for binding to ALPL by SPR: AAV 0.0625 to 1 nM over ALPL, or ALPL 15.625 to 250 nM over capsid
Protocol: Direct binding and specific interaction of the TTM-002 capsid variant and the AAV9 capsid control to ALPL was measured by Surface Plasmon Resonance (SPR) on a Biacore 8K instrument. His-tagged ALPL was first captured on a CM5 sensor chip pre-immobilized with anti-His antibody by passing 5 μg/ml of ALPL for 240 seconds (FIGS. 2A-2B). AAV9 or TTM-002 and buffer were then passed over ALPL to monitor rates of association and dissociation, respectively. […] The surface was regenerated using two pulses of 10 mM glycine pH 1.7 for 30 seconds. A flow rate of 30 μl/min was used for all steps and the running buffer used was PBS-P+. In a second experiment, the AAV9 control or TTM-002 capsid variant were immobilized on the CM5 sensor chip (FIGS. 2C-2D). His-tagged ALPL and buffer were then passed over the AAV9 control or TTM-002 capsid variant to monitor rates of association and dissociation. The concentration of ALPL used was from 15.625 to 250 nM (e.g., 15.625 nM, […], 62.5 nM, 125 nM, and 250 nM; FIGS. 2C-2D).
For this experiment, the density of TTM-002 on the chip was approximately 6300RU.
Additional experiments were performed varying the density of the TTM-002 capsid variant on the chip. His-tagged ALPL and buffer were then passed over the AAV9 control or TTM-002 capsid variant to monitor rates of association and dissociation.

ALPL on HeLa cells = biological target: T2, ALPL on HeLa cells; assay: Transduction of HeLa cells after blocking with an anti-ALPL antibody; format: cell-based; settings: for Transduction in Hela cells as measured by luciferase assay (RLU): 1E4 VG/cell
Protocol: Following incubation, the cells were transduced with 1E4 VG/cell of AAV particles comprising the TTM-002 capsid variant or an AAV9 control expressing a GFP-luciferase payload. After a 4 hour incubation period the AAV and media were removed and replaced with fresh media and luciferase activity was measured (RLU) 24 hours post transduction.

[1] = system: brains and tissues (liver, DRG, quadriceps, and heart); assay: NGS fold enrichment of capsid variants in African green monkeys; format: in vivo, African green monkeys (Chlorocebus sabaeus); settings: 2E13 vg/kg IV, 14 days
Description: (§1) To investigate tropism in African green monkeys, AAV particles comprising the TTM-001 capsid variant, the TTM-002 capsid variant, an AAV9 capsid variant comprising SEQ ID NO: 966, or an AAV9 control under the control of a synapsin promoter, were intravenously injected into NHPs (n=2, 3-12 years of age) at a dose of 2E13 vg/kg. After 14-days in life, the brains and tissues (liver, DRG, quadriceps, and heart) of the NHPs were collected and RNA was extracted. Following RNA recovery and RT-PCR amplification, a systematic NGS enrichment analysis was performed to calculate the fold enrichment ratio relative to the AAV9 wild-type control.

[2] = system: brains and tissues (liver quadriceps, and heart); assay: NGS fold enrichment of capsid variants in marmosets; format: in vivo, marmosets (Callithrix jacchus); settings: 2E13 vg/kg IV, 28 days
Description: as §1, with “marmoset” for “African green”, “control,” for “control under the control of a synapsin promoter,”, “>10 months” for “3-12 years”, “vg/kg (8.75E12 vg/mL).” for “vg/kg.”, “28-days” for “14-days”, “(liver” for “(liver, DRG,”

[3] = biological target: T3, isoform 1 (Alkaline phosphatase, placental-like 2 (ALPPL2)) (Homo sapiens, UniProt P10696); assay: Transduction assay in HEK 293T cells expressing isoform 1; format: cell-based; settings: for Luciferase Activity (RLU): Table 30, Isoform 1 transfected cells; for increase in transduction in cells expressing isoform 1: luciferase activity (RLU)
T3 construct: expressed in transfected cells; host or cells: HEK 293T
T3 sequence (P10696 20-503): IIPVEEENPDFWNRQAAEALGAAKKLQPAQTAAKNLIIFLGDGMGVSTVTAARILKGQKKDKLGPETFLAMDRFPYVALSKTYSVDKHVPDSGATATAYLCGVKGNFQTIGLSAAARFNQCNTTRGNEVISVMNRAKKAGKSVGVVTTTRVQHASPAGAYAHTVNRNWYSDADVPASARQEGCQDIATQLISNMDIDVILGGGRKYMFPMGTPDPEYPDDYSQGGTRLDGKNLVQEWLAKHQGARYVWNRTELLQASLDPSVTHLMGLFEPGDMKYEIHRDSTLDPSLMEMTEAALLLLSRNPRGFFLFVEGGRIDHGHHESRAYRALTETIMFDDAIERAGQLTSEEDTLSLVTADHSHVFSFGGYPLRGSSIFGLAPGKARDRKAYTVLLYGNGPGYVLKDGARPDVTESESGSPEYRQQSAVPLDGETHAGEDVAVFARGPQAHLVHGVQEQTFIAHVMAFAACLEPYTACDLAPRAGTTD
Description: Three isoforms of ALPL exist, isoform 1 (Alkaline phosphatase, placental-like 2 (ALPPL2), NM_031313, which is incorporated by reference herein), isoform 2 (alkaline phosphatase, placental (ALPP), NM_001632, which is incorporated by reference herein), and isoform 3 (alkaline phosphatase, intestinal (ALPLI), NM_001631, which is incorporated by reference herein), that can also be expressed on cell surfaces via a GPI-anchor. Isoform 1 is 56.25% identical and 72.54% similar (gaps: 4.17%) to ALPL, isoform 2 is 54.96% identical and 71.37% similar (gaps: 2.29%) to ALPL, and isoform 3 is 55.98% identical and 72.11% similar (gaps: 3.04%) to ALPL. The transduction assay described above was repeated with the three isoforms. HEK 293T cells were transfected via calcium phosphate transfection with a plasmid expressing ALPL, isoform 1 of ALPL, isoform 2 of ALPL, isoform 3 of ALPL, an AAVR positive control, or a pCMV6 negative control. […] At 24-hours post-transduction, luciferase activity (RLU) was measured to quantify AAV cellular transduction.

[4] = IgG isotype control 3.125 μg/mL
[5] = TTM-002 on chip approximately 6300RU

Molecule	binding to ALPL by SPR (His-tagged ALPL)	Transduction in Hela cells as measured by luciferase assay (RLU) (ALPL on HeLa cells; Anti-ALPL antibody 0 μg/mL)	Transduction in Hela cells as measured by luciferase assay (RLU) (ALPL on HeLa cells; Anti-ALPL antibody 3.125 μg/mL)	Transduction in Hela cells as measured by luciferase assay (RLU) (ALPL on HeLa cells; Anti-ALPL antibody 6.25 μg/mL)	Transduction in Hela cells as measured by luciferase assay (RLU) (ALPL on HeLa cells; Anti-ALPL antibody 12.5 μg/mL)	Transduction in Hela cells as measured by luciferase assay (RLU) (ALPL on HeLa cells; IgG isotype control 0 μg/mL)	Transduction in Hela cells as measured by luciferase assay (RLU) (ALPL on HeLa cells; [4])	Transduction in Hela cells as measured by luciferase assay (RLU) (ALPL on HeLa cells; IgG isotype control 6.25 μg/mL)	Transduction in Hela cells as measured by luciferase assay (RLU) (ALPL on HeLa cells; IgG isotype control 12.5 μg/mL)	expression relative to AAV9 in the heart of African green monkeys [1]	fold increase in expression relative to AAV9 in the brain of African green monkeys [1] [fold]	expression relative to AAV9 in the heart of marmosets [2]	fold increase in expression relative to AAV9 in the brain of marmosets [2] [fold]	Luciferase Activity (RLU) [3]	increase in transduction in cells expressing isoform 1 [3]	also measured
AAV9: wild-type AAV9 control capsid [reference compound]	no binding	530.67	527.33	451.67	417.33	433.33	457.67	516.33	551.33							
TTM-001: AAV9 capsid variant comprising SPHSKA (SEQ ID NO: 941) in loop IV (protein) chain 1: MAADGYLPDWLEDNLSEGIREWWALKPGAPQPKANQQHQDNARGLVLPGYKYLGPGNGLDKGEPVNAADAAALEHDKAYDQQLKAGDNPYLKYNHADAEFQERLKEDTSFGGNLGRAVFQAKKRLLEPLGLVEEAAKTAPGKKRPVEQSPQEPDSSAGIGKSGAQPAKKRLNFGQTGDTESVPDPQPIGEPPAAPSGVGSLTMASGGGAPVADNNEGADGVGSSSGNWHCDSQWLGDRVITTSTRTWALPTYNNHLYKQISNSTSGGSSNDNAYFGYSTPWGYFDFNRFHCHFSPRDWQRLINNNWGFRPKRLNFKLFNIQVKEVTDNNGVKTIANNLTSTVQVFTDSDYQLPYVLGSAHEGCLPPFPADVFMIPQYGYLTLNDGSQAVGRSSFYCLEYFPSQMLRTGNNFQFSYEFENVPFHSSYAHSQSLDRLMNPLIDQYLYYLSKTINGSGSPHSKAQNQQTLKFSVAGPSNMAVQGRNYIPGPSYRQQRVSTTVTQNNNSEFAWPGASSWALNGRNSLMNPGPAMASHKEGEDRFFPLSGSLIFGKQGTGRDNVDADKVMITNEEEIKTTNPVATESYGQVATNHQSAQAQAQTGWVQNQGILPGMVWQDRDVYLQGPIWAKIPHTDGNFHPSPLMGGFGMKHPPPQILIKNTPVPADPPTAFNKDKLNSFITQYSTGQVSVEIEWELQKENSKRWNPEIQYTSNYYKSNNVEFAVNTEGVYSEPRPIGTRYLTRNL chain 2: GSGSPHSKAQNQQT										a significant increase in expression relative to AAV9	43.5	a significant increase in expression relative to AAV9	703.3	4,072 RLU	did not occur	
TTM-002: AAV9 capsid variant comprising HDSPHK (SEQ ID NO: 2) in loop IV (protein) chain 1: MAADGYLPDWLEDNLSEGIREWWALKPGAPQPKANQQHQDNARGLVLPGYKYLGPGNGLDKGEPVNAADAAALEHDKAYDQQLKAGDNPYLKYNHADAEFQERLKEDTSFGGNLGRAVFQAKKRLLEPLGLVEEAAKTAPGKKRPVEQSPQEPDSSAGIGKSGAQPAKKRLNFGQTGDTESVPDPQPIGEPPAAPSGVGSLTMASGGGAPVADNNEGADGVGSSSGNWHCDSQWLGDRVITTSTRTWALPTYNNHLYKQISNSTSGGSSNDNAYFGYSTPWGYFDFNRFHCHFSPRDWQRLINNNWGFRPKRLNFKLFNIQVKEVTDNNGVKTIANNLTSTVQVFTDSDYQLPYVLGSAHEGCLPPFPADVFMIPQYGYLTLNDGSQAVGRSSFYCLEYFPSQMLRTGNNFQFSYEFENVPFHSSYAHSQSLDRLMNPLIDQYLYYLSKTINGHDSPHKSGQNQQTLKFSVAGPSNMAVQGRNYIPGPSYRQQRVSTTVTQNNNSEFAWPGASSWALNGRNSLMNPGPAMASHKEGEDRFFPLSGSLIFGKQGTGRDNVDADKVMITNEEEIKTTNPVATESYGQVATNHQSAQAQAQTGWVQNQGILPGMVWQDRDVYLQGPIWAKIPHTDGNFHPSPLMGGFGMKHPPPQILIKNTPVPADPPTAFNKDKLNSFITQYSTGQVSVEIEWELQKENSKRWNPEIQYTSNYYKSNNVEFAVNTEGVYSEPRPIGTRYLTRNL chain 2: GHDSPHKSGQNQQT	capable of directly and specifically binding to ALPL in a dose dependent manner	4701	5042.67	5220	5556.67	4113.33	527.33	186.67	136	a significant increase in expression relative to AAV9	13.8	a significant increase in expression relative to AAV9	366.6	1,114 RLU	did not occur	koff (His-tagged ALPL; Density of TTM-002 127 RU on chip): 0.0051 s⁻¹; koff (His-tagged ALPL; Density of TTM-002 2400 RU on chip): 0.00185 s⁻¹; koff (His-tagged ALPL; Density of TTM-002 6300 RU on chip): 0.00127 s⁻¹; koff (His-tagged ALPL; Density of TTM-002 6680 RU on chip): 0.00116 s⁻¹; koff (His-tagged ALPL; [5]): 0.00127 s⁻¹; kon (His-tagged ALPL; [5]): 32000 M⁻¹ s⁻¹; transduction in the presence of anti-ALPL antibody vs isotype control (ALPL on HeLa cells; HeLa, 0-12.5 μg/mL antibody): decreased TTM-002 transduction in a dose dependent manner
